Laboratory results from patent publication US20060052582A1 (published 2006).

Key:
[1] = molecular target: T1, endogenous Nercc1 kinase of human cells (p120) (human, UniProt Q8TD19 2-979); assay: anti-FLAG immunoaffinity purification from HEK293 cells; associated band identified by mass spectrometry
T1 construct: Endogenous 120 kDa protein
T1 sequence: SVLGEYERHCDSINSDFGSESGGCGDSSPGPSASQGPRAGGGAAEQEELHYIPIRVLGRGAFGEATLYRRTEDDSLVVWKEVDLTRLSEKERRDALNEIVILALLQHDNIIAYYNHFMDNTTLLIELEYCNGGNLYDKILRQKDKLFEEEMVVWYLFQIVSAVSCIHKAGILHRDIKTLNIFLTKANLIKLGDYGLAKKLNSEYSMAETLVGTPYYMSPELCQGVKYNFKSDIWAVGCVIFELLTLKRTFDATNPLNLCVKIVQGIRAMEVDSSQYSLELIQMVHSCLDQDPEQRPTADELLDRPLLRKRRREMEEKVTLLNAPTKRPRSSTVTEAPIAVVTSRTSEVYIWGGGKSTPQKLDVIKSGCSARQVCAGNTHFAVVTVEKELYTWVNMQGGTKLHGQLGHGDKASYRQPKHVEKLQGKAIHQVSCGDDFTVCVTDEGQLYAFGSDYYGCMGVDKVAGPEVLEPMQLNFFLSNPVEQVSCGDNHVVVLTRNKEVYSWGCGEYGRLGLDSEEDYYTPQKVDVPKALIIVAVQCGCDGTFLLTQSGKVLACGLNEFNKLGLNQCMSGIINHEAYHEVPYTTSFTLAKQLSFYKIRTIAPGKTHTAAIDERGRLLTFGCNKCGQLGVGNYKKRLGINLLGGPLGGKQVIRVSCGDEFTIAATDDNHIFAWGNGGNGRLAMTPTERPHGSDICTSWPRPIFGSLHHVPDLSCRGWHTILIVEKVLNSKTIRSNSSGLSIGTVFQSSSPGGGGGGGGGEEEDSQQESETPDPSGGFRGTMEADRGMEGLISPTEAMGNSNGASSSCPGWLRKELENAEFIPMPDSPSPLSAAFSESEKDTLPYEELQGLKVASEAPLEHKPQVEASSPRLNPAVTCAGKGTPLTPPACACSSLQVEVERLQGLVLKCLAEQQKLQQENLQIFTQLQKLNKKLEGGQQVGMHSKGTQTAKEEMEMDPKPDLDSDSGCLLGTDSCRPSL
Description: Immunoaffinity purification of a FLAG Nek6 polypeptide overexpressed in HEK293 cells results in the recovery of an associated 120 kilodalton (kDa) polypeptide (p120). […] The 120 kDa band was excised, subjected to tryptic digestion in situ, microcapillary reverse-phase HPLC and peptide sequence analysis by electrospray ionization mass spectrometry. Spectra corresponding to multiple peptide sequences were identified on each of three successive open reading frames (ORFs) predicted by […] (Burge et al., J. Mol. Biol., 268: 78-94 (1997)) on the human BAC clone 201F1 (AC007055). […] Further analysis of the genomic sequences including and surrounding all three ORFs, using both […] (Borodovsky et al., Computers and Chem., 17: 123-133 (1993)) or […] yielded predictions containing all three original ORFs (AAD31938, AAD31939 and AAD31940) in polypeptides of around 100 kDa (107 kDa and 91 kDa, respectively).

[2] = molecular target: HA wild type Ran (UniProt P62826 1-216); assay: co-expression and co-immunoprecipitation
Description: To address more directly the relative binding in vivo of Nercc to Ran-GDP compared to Ran-GTP, the cytoplasmic wild type Nercc and a nuclear form of full length Nercc (NLS-Nercc) were each co-expressed with wild type Ran or Ran mutants that bind GDP (T24N) or GTP (G19V) exclusively; either Ran or Nercc was immunoprecipitated and probed for the association with the other polypeptide. The full-length wild type Nercc bound co-expressed wild type Ran and Ran T24N to a greater extent than RanG19V.

[3] = molecular target: T2, FLAG Nercc (full-length wild type Nercc1 kinase with FLAG epitope tag) (human, UniProt Q8TD19 1-979); assay: binding test of co-expressed proteins; details not given
T2 construct: Expressed in HEK293 cells; also called FLAG Nercc1; FLAG Nercc full length (FL)
T2 sequence: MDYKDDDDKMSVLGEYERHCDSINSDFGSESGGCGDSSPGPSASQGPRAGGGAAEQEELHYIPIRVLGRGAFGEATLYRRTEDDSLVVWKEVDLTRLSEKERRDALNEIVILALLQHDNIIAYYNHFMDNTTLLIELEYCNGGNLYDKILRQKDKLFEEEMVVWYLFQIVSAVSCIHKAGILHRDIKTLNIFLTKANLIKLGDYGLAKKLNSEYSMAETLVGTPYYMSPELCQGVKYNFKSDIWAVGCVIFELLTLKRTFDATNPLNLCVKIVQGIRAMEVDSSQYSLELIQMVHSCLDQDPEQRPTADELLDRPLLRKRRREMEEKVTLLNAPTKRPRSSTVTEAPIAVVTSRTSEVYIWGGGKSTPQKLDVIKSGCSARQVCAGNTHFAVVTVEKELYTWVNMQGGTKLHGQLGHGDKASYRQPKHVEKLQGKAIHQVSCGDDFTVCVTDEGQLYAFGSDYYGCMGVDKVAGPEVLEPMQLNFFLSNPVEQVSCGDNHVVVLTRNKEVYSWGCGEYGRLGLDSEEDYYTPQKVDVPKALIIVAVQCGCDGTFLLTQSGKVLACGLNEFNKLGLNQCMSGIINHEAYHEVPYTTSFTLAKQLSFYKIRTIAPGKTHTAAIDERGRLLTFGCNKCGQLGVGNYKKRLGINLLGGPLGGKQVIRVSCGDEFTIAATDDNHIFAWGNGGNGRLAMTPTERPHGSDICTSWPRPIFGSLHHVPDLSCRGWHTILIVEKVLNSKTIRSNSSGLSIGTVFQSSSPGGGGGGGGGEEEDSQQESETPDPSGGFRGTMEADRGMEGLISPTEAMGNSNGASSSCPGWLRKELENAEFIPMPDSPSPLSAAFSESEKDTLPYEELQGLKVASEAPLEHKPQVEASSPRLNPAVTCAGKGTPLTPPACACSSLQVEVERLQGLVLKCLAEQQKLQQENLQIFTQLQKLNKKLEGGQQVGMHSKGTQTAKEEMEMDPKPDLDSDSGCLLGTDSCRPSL

[4] = molecular target: T3, FLAG Nercc (1-891) (human, UniProt Q8TD19 1-891); assay: as above
T3 sequence: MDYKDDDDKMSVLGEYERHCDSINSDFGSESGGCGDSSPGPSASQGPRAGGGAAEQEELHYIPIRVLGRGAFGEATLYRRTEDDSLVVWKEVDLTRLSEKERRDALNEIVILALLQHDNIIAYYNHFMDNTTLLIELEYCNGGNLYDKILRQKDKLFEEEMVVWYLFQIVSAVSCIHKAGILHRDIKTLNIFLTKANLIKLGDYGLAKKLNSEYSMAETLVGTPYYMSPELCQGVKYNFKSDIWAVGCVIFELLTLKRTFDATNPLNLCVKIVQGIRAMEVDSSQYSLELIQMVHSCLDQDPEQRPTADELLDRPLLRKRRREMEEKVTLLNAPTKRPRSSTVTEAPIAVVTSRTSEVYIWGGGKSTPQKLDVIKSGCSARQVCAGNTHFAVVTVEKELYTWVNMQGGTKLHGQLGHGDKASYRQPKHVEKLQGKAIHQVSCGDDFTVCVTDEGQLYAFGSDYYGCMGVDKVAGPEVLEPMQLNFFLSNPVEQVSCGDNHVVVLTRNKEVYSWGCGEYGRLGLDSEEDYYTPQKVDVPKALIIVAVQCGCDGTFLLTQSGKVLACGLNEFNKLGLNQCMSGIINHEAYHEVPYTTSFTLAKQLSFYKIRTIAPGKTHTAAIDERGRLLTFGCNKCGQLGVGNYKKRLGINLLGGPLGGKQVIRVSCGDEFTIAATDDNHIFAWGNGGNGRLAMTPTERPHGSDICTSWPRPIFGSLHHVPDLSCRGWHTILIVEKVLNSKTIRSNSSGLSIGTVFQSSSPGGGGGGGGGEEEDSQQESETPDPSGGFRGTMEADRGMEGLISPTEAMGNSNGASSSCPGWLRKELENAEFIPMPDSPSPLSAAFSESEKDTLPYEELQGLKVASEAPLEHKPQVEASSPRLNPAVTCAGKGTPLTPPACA

Chain of FLAG Nek6 (chain): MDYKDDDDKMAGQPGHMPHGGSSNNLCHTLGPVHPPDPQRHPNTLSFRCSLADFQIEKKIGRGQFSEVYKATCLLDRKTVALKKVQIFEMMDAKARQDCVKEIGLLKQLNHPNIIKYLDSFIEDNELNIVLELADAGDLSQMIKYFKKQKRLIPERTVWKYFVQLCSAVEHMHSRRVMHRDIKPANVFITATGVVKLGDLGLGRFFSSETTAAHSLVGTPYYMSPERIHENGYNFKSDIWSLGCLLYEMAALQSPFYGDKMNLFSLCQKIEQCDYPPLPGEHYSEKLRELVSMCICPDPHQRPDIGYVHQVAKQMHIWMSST

Binder	binding result [1]	binding result [2]	binding result [3]	binding result [4]
FLAG Nek6 (enzyme, Expressed in HEK293 cells; runs as a doublet (phosphorylated and unphosphorylated); also called wild type FLAG Nek6) not shown	binds			
Nek6 (tag of the construct not stated) (enzyme) not shown		no binding	binds	binds
